{"source": "paper PMC7549790", "target": "Toll-like receptor 2 (mouse (endogenous in RAW264.7)) (UniProt Q9QUN7)", "sequence (Q9QUN7 25-784)": "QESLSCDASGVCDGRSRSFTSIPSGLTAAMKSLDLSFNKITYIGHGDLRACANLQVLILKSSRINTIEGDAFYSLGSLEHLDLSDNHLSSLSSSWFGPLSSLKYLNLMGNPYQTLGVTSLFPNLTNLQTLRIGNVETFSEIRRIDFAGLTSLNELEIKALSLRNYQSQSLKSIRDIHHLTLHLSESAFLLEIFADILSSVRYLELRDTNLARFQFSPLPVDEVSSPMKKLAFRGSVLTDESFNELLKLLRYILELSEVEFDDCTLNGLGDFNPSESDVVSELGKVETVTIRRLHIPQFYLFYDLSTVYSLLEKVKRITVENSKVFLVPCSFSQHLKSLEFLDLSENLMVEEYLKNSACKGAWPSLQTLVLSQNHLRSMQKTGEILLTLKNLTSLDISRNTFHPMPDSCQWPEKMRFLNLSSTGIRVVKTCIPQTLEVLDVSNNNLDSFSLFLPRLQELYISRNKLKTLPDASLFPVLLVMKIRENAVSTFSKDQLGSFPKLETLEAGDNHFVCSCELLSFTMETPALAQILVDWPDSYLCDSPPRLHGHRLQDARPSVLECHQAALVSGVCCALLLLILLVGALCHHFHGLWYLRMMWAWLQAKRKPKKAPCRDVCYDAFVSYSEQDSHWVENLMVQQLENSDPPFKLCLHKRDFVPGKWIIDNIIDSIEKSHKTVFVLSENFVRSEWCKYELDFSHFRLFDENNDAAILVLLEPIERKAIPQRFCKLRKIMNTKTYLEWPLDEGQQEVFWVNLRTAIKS"}
{"substance": "recombinant Clonorchis sinensis molecular chaperone HscB (natural protein)", "values": [{"measurement": "IL-10 secreted by RAW264.7 macrophages stimulated with 5~20 μg/ml rCsHscB for 12 h or 24 h (ELISA); highest at 20 μg/ml for 24 h (fold over DMEM-stimulated cells)", "result": "> 10"}]}
